Experimental data: patent publication US5811098, “Antibodies to HER4, human receptor tyrosine kinase” (Bristol-Myers Squibb Company, dated 1998)

B1: HER4/p180erbB4 (human prototype HER4) (receptor)
chain: QSVCAGTENKLSSLSDLEQQYRALRKYYENCEVVMGNLEITSIEHNRDLSFLRSVREVTGYVLVALNQFRYLPLENLRIIRGTKLYEDRYALAIFLNYRKDGNFGLQELGLKNLTEILNGGVYVDQNKFLCYADTIHWQDIVRNPWPSNLTLVSTNGSSGCGRCHKSCTGRCWGPTENHCQTLTRTVCAEQCDGRCYGPYVSDCCHRECAGGCSGPKDTDCFACMNFNDSGACVTQCPQTFVYNPTTFQLEHNFNAKYTYGAFCVKKCPHNFVVDSSSCVRACPSSKMEVEENGIKMCKPCTDICPKACDGIGTGSLMSAQTVDSSNIDKFINCTKINGNLIFLVTGIHGDPYNAIEAIDPEKLNVFRTVREITGFLNIQSWPPNMTDFSVFSNLVTIGGRVLYSGLSLLILKQQGITSLQFQSLKEISAGNIYITDNSNLCYYHTINWTTLFSTINQRIVIRDNRKAENCTAEGMVCNHLCSSDGCWGPGPDQCLSCRRFSRGRICIESCNLYDGEFREFENGSICVECDPQCEKMEDGLLTCHGPGPDNCTKCSHFKDGPNCVEKCPDGLQGANSFIFKYADPDRECHPCHPNCTQGCNGPTSHDCIYYPWTGHSTLPQHARTPLIAAGVIGGLFILVIVGLTFAVYVRRKSIKKKRALRRFLETELVEPLTPSGTAPNQAQLRILKETELKRVKVLGSGAFGTVYKGIWVPEGETVKIPVAIKILNETTGPKANVEFMDEALIMASMDHPHLVRLLGVCLSPTIQLVTQLMPHGCLLEYVHEHKDNIGSQLLLNWCVQIAKGMMYLEERRLVHRDLAARNVLVKSPNHVKITDFGLARLLEGDEKEYNADGGKMPIKWMALECIHYRKFTHQSDVWSYGVTIWELMTFGGKPYDGIPTREIPDLLEKGERLPQPPICTIDVYMVMVKCWMIDADSRPKFKELAAEFSRMARDPQRYLVIQGDDRMKLPSPNDSKFFQNLLDEEDLEDMMDAEEYLVPQAFNIPPPIYTSRARIDSNRSEIGHSPPPAYTPMSGNQFVYRDGGFAAEQGVSVPYRAPTSTIPEAPVAQGATAEIFDDSCCNGTLRKPVAPHVQEDSSTQRYSADPTVFAPERSPRGELDEEGYMTPMRDKPKQEYLNPVEENPFVSRRKNGDLQALDNPEYHNASNGPPKAEDEYVNEPLYLNTFANTLGKAEYLKNNILSMPEKAKKAFDNPDYWNHSLPPRSTLQHPDYLQEYSTKYFYKQNGRIRPIVAENPEYLSEFSLKPGTVLPPPPYRHRNTVV
B2: HAR-TX β2, chimeric heregulin-toxin protein (other)
chain: MVVKPPQNKTESENTSDKPKRKKKGGKNGKNRRNRSHLIKCAEKEKTFCVNGGECFTVKDLSNPSRYLCKCPNEFTGDRCQNYVMASFYKAEELYKLMAEEGGSLAALTAHQACHLPLETFTRHRQPRGWEQLEQCGYPVQRLVALYLAARLSWNQVDQVIRNALASPGSGGDLGEAIREQPEQARLALTLAAAESERFVRQGTGNDEAGAANADVVSLTCPVAAGECAGPADSGDALLERNYPTGAEFLGDGGDVSFSTRGTQNWTVERLLQAHRQLEERGYVFVGYHGTFLEAAQSIVFGGVRARSQDLDAIWRGFYIAGDPALAYGYAQDQEPDARGRIRNGALLRVYVPRSSLPGFYRTSLTLAGGEAAGEVERLIGHPLPLRLDAITGPEEEGGRLETILGWPLAERTVVIPSAIPTDPRNVGGDLDPSSIPDKEQAISALPDYASQPGKPPREDLK

Legend:
[1] = biological target: T1, p45, HER4 ligand purified from HepG2 conditioned medium (human, UniProt Q02297, 125I-labeled Bolton-Hunter reagent (in the binding and cross-linking assays)); experiment: binding of 125I-p45 to CHO/HER4 cell monolayers, 2 h at 4° C, Scatchard analysis (LIGAND program)
T1 sequence: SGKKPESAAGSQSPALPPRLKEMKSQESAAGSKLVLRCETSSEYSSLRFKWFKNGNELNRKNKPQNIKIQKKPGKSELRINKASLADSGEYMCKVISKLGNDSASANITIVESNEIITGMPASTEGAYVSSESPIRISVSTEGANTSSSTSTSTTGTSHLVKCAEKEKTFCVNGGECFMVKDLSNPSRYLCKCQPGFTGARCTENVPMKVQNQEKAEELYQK

HER3/p160erbB3 (human) = HER3/p160erbB3 (human) (human); experiment: cell-based or functional assay
HER2/p185erbB2 (human) = HER2/p185erbB2 (human) (human); experiment: cell-based or functional assay

Binder	Kd [1]	EC50 of cytotoxicity, H3396 cells (HER3/p160erbB3 (human))	EC50 of cytotoxicity, L2987 cells (HER3/p160erbB3 (human))	EC50 of cytotoxicity, SK0V3 cells (HER3/p160erbB3 (human))	EC50 of cytotoxicity, H3396 cells (HER2/p185erbB2 (human))	EC50 of cytotoxicity, L2987 cells (HER2/p185erbB2 (human))	EC50 of cytotoxicity, SK0V3 cells (HER2/p185erbB2 (human))
B1	~5 nM	–	–	–	–	–	–
B2	–	> 2 µg/mL	> 2 µg/mL	> 2 µg/mL	> 2 µg/mL	> 2 µg/mL	> 2 µg/mL
